US20140093496A1 (Chugai, published 2014)
Positions count from the first letter of the chain named. Names and notes keep the numbering of the source.

T1: FcγRIIa type R extracellular domain with C-terminal His tag (human, UniProt P12318 34-217)
T1 construct: extracellular domain; also called FcgRIIaR; FcγRIIaR
T1 sequence (looked up): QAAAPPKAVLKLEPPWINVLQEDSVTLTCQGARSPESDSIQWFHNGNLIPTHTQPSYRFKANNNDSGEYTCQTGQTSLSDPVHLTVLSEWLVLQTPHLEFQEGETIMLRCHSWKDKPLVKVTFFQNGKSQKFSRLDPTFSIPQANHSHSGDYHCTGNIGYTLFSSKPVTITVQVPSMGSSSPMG

T2: FcγRIIa type H extracellular domain with C-terminal His tag (human, UniProt P12318 34-217)
T2 construct: extracellular domain; also called FcgRIIaH; FcγRIIaH
T2 sequence (looked up): T1 sequence (looked up) with R134H

T3: FcγRIIb extracellular domain with C-terminal His tag (human, UniProt P31994 43-217)
T3 construct: extracellular domain; also called FcgRIIb
T3 sequence (looked up): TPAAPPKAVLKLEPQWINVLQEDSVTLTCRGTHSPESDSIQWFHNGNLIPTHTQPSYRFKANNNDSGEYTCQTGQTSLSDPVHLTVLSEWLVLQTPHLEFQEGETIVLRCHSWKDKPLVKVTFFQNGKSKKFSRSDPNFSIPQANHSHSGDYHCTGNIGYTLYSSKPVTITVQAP

T4: FcγRIIa type R extracellular domain with C-terminal His tag (human, UniProt P12318 34-217)
T4 chain: T1 sequence (looked up)

T5: FcγRIIa type R extracellular domain, C-terminal His tag (human, UniProt P12318 34-217)
T5 construct: extracellular domain; also called FcgRIIaR; FcγRIIaR; not shown: His tag at the C terminus
T5 sequence (looked up): T1 sequence (looked up)

T6: FcγRIIb extracellular domain, C-terminal His tag (human, UniProt P31994 43-217)
T6 construct: extracellular domain; also called FcgRIIb; CD32B; not shown: His tag at the C terminus
T6 sequence (looked up): T3 sequence (looked up)

T7: FcγRIIb extracellular domain with C-terminal His tag (human, UniProt P31994 43-217)
T7 construct: extracellular domain; also called FcgRIIb; FcγRIIb extracellular region; not shown: His tag at the C terminus
T7 sequence (looked up): T3 sequence (looked up)

B1: IL6R-BP180/IL6R-L (antibody, human IgG1, kappa)
heavy: QVQLQESGPGLVKPSETLSLTCAVSGHSISHDHAWSWVRQPPGEGLEWIGFISYSGITNYNPSLQGRVTISRDNSKNTLYLQMNSLRAEDTAVYYCARSLARTTAMDYWGEGTLVTVSSASTKGPSVFPLAPSSKSTSGGTAALGCLVKDYFPEPVTVSWNSGALTSGVHTFPAVLQSSGLYSLSSVVTVPSSSLGTQTYICNVNHKPSNTKVDKKVEPKSCDKTHTCPPCPAPELLGDDSVFLFPPKPKDTLMISRTPEVTCVVVDVSHEDGEVKFNWYVDGVEVHNAKTKPREEQYNSTYRVVSVLTVLHQDWLNGKEYKCKVSNKALPKPIEKTISKAKGQPREPQVYTLPPSRDELTKNQVSLTCLVKGFYPSDIAVEWESNGQPENNYKTTPPVLDSDGSFFLYSKLTVDKSRWQQGNVFSCSVMHEALHNHYTQESLSLSP
light: not shown
notes: G237D/P238D/P271G/A330K (EU) in IL6R-B3; copies: 2 + 2
B2: IL6R-BP187/IL6R-L (antibody, human IgG1, kappa)
heavy: B1 heavy with L236Y, D239G, K328A
light: not shown
notes: L234Y/P238D/P271G/K326A/A330K (EU) in IL6R-B3; copies: 2 + 2
B3: IL6R-BP183/IL6R-L (antibody, human IgG1, kappa)
heavy: B1 heavy with E235D, L236Y, D239G, K328A
light: not shown
notes: E233D/L234Y/P238D/P271G/K326A/A330K (EU) in IL6R-B3; copies: 2 + 2
B4: IL6R-BP185/IL6R-L (antibody, human IgG1, kappa)
heavy: B1 heavy with E235D, L236Y, K328A
light: not shown
notes: E233D/L234Y/G237D/P238D/P271G/K326A/A330K (EU) in IL6R-B3; copies: 2 + 2
B5: IL6R-2B253/IL6R-L (antibody, human IgG1, kappa)
heavy: B1 heavy with E235D, D239G, G273P, V325M, K332A
light: not shown
notes: E233D/P238D/V323M (EU) in IL6R-B3; copies: 2 + 2
B6: IL6R-BP184/IL6R-L (antibody, human IgG1, kappa)
heavy: B1 heavy with E235D, D239G
light: not shown
notes: E233D/P238D/P271G/A330K (EU) in IL6R-B3; copies: 2 + 2
B7: IL6R-BP085/IL6R-L (antibody, human IgG1, kappa)
heavy: B1 heavy with G273P
light: not shown
notes: G237D/P238D/A330K (EU) in IL6R-B3; copies: 2 + 2
B8: IL6R-BP148/IL6R-L (antibody, human IgG1, kappa)
heavy: B1 heavy with E235D, L236Y, G273P, K328A
light: not shown
notes: E233D/L234Y/G237D/P238D/K326A/A330K (EU) in IL6R-B3; copies: 2 + 2
B9: IL6R-BP190/IL6R-L (antibody, human IgG1, kappa)
heavy: B1 heavy with H270D
light: not shown
notes: G237D/P238D/H268D/P271G/A330K (EU) in IL6R-B3; copies: 2 + 2
B10: IL6R-PD043/IL6R-L (antibody, human IgG1, kappa)
heavy: B1 heavy with L236Y, D239G, M254Y, G273P, K332A, N436Y, E441K
light: not shown
notes: IL6R-F11 with P238D/L234Y; copies: 2 + 2
B11: IL6R-PD082/IL6R-L (antibody, human IgG1, kappa)
heavy: B1 heavy with D239F, M254Y, G273P, K332A, N436Y, E441K
light: not shown
notes: IL6R-F11 with P238D/G237F; copies: 2 + 2
B12: IL6R-PD097/IL6R-L (antibody, human IgG1, kappa)
heavy: B1 heavy with D239G, S241D, M254Y, G273P, K332A, N436Y, E441K
light: not shown
notes: IL6R-F11 with P238D/S239D; copies: 2 + 2
B13: IL6R-PD095/IL6R-L (antibody, human IgG1, kappa)
heavy: B1 heavy with D239Y, M254Y, G273P, K332A, N436Y, E441K
light: not shown
notes: IL6R-F11 with P238D/G237Y; copies: 2 + 2
B14: IL6R-PD081/IL6R-L (antibody, human IgG1, kappa)
heavy: B1 heavy with D239E, M254Y, G273P, K332A, N436Y, E441K
light: not shown
notes: IL6R-F11 with P238D/G237E; copies: 2 + 2
B15: IL6R-PD086/IL6R-L (antibody, human IgG1, kappa)
heavy: B1 heavy with D239L, M254Y, G273P, K332A, N436Y, E441K
light: not shown
notes: IL6R-F11 with P238D/G237L; copies: 2 + 2
B16: IL6R-PD094/IL6R-L (antibody, human IgG1, kappa)
heavy: B1 heavy with D239W, M254Y, G273P, K332A, N436Y, E441K
light: not shown
notes: IL6R-F11 with P238D/G237W; copies: 2 + 2
B17: IL6R-BP102/IL6R-L (antibody, human IgG1, kappa)
heavy: B1 heavy with D239G, S269Q, G273P, K332A
light: not shown
notes: IgG1; P238D/S267Q (EU numbering) introduced into IL6R-B3
B18: IL6R-BP120/IL6R-L (antibody, human IgG1, kappa)
heavy: B1 heavy with D239G, G273P, K328E, K332A
light: not shown
notes: IgG1; P238D/K326E (EU numbering) introduced into IL6R-B3
B19: IL6R-BP117/IL6R-L (antibody, human IgG1, kappa)
heavy: B1 heavy with D239G, G273P, K328D, K332A
light: not shown
notes: IgG1; P238D/K326D (EU numbering) introduced into IL6R-B3
B20: IL6R-BP136/IL6R-L (antibody, human IgG1, kappa)
heavy: B1 heavy with D239G, G273P, K328A, K332A
light: not shown
notes: IgG1; P238D/K326A (EU numbering) introduced into IL6R-B3
B21: G237A (antibody, human IgG1, kappa)
heavy chain: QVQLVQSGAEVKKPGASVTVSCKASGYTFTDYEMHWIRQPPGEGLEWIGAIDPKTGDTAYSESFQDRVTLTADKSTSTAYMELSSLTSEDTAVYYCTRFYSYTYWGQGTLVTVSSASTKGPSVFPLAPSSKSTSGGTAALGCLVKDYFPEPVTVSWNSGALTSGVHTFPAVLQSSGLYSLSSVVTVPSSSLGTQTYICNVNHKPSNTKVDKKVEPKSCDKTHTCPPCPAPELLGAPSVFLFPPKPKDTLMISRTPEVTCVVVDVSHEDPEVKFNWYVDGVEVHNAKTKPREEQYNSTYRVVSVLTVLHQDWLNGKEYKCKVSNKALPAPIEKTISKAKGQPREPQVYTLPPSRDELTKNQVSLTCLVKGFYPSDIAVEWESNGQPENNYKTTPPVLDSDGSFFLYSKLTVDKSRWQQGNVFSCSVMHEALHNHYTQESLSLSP
light chain: DIVMTQSPLSLPVTPGEPASISCQASESLVHSNRNTYLHWYLQKPGQSPQLLIYKVSNRFSGVPDRFSGSGSGTDFTLKISRVEAEDVGVYYCSQNTHVPPTFGQGTKVEIERTVAAPSVFIFPPSDEQLKSGTASVVCLLNNFYPREAKVQWKVDNALQSGNSQESVTEQDSKDSTYSLSSTLTLSKADYEKHKVYACEVTHQGLSSPVTKSFNRGEC
notes: Named on the sheet only by its alteration; also called B3 variant of GpH7-B3/GpL16-k0 with G237A (no P238D)
B22: G237E (antibody, human IgG1, kappa)
heavy chain: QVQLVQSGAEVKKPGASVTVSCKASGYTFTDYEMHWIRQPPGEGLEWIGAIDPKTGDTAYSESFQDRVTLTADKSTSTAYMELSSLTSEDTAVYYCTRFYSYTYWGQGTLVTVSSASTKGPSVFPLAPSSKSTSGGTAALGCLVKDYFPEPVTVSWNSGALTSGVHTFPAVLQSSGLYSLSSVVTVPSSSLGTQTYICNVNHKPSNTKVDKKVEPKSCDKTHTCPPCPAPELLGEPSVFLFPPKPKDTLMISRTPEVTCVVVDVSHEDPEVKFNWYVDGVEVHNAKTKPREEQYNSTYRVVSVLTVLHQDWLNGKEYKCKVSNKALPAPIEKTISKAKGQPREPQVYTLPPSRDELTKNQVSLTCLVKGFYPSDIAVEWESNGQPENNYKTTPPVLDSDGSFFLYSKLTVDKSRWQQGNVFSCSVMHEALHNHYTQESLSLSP
light chain: B21 light chain
notes: Named on the sheet only by its alteration; also called B3 variant of GpH7-B3/GpL16-k0 with G237E (no P238D)
B23: G237D (antibody, human IgG1, kappa)
heavy chain: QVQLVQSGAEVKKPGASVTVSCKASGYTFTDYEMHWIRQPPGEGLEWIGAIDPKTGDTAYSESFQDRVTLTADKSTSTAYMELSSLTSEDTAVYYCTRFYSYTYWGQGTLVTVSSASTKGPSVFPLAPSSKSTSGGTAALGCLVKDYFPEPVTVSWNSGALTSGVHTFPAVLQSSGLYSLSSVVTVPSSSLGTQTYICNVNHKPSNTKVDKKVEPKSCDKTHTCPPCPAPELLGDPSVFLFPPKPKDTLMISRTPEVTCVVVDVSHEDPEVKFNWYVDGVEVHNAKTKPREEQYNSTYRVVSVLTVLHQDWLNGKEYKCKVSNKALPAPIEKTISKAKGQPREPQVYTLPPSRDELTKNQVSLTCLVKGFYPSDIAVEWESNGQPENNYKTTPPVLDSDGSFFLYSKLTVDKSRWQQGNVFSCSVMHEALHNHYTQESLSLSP
light chain: B21 light chain
notes: Named on the sheet only by its alteration; also called B3 variant of GpH7-B3/GpL16-k0 with G237D (no P238D)
B24: L234W (antibody, human IgG1, kappa)
heavy chain: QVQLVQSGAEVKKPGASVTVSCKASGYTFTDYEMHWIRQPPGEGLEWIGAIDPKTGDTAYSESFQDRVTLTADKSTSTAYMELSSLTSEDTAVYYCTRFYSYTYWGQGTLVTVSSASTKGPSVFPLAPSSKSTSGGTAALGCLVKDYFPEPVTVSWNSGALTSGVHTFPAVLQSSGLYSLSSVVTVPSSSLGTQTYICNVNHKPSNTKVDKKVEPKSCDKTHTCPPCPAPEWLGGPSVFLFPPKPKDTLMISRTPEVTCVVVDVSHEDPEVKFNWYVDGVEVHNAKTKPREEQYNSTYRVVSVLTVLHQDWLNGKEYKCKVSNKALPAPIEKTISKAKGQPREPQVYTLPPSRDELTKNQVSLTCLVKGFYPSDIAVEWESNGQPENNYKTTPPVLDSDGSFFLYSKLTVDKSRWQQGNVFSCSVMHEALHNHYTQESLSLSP
light chain: B21 light chain
notes: Named on the sheet only by its alteration; also called B3 variant of GpH7-B3/GpL16-k0 with L234W (no P238D)
B25: G237Y (antibody, human IgG1, kappa)
heavy chain: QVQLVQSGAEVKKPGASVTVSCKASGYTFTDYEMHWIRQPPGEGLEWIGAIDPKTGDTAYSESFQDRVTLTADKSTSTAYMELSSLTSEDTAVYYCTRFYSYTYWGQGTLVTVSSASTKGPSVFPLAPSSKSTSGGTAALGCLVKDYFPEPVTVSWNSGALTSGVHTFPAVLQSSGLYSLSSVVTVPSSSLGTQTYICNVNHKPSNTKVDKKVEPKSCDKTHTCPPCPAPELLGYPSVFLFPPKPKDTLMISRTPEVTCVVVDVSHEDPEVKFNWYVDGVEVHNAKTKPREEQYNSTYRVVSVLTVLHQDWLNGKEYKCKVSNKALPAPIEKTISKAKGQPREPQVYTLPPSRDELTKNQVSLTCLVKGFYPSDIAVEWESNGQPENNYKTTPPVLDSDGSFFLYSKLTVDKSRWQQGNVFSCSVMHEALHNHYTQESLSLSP
light chain: B21 light chain
notes: Named on the sheet only by its alteration; also called B3 variant of GpH7-B3/GpL16-k0 with G237Y (no P238D)
B26: G237L (antibody, human IgG1, kappa)
heavy chain: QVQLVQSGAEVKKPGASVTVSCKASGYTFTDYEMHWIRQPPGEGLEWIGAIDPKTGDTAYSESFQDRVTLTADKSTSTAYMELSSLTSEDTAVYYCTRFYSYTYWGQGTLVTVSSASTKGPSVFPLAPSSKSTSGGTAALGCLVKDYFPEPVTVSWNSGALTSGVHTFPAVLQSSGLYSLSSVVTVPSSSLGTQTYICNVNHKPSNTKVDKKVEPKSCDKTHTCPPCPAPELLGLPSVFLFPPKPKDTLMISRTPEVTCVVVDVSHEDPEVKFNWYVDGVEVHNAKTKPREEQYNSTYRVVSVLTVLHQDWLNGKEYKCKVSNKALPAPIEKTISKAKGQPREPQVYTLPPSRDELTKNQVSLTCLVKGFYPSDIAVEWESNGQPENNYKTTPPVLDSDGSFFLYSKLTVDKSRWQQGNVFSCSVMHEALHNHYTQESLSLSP
light chain: B21 light chain
notes: Named on the sheet only by its alteration; also called B3 variant of GpH7-B3/GpL16-k0 with G237L (no P238D)
B27: G237M (antibody, human IgG1, kappa)
heavy chain: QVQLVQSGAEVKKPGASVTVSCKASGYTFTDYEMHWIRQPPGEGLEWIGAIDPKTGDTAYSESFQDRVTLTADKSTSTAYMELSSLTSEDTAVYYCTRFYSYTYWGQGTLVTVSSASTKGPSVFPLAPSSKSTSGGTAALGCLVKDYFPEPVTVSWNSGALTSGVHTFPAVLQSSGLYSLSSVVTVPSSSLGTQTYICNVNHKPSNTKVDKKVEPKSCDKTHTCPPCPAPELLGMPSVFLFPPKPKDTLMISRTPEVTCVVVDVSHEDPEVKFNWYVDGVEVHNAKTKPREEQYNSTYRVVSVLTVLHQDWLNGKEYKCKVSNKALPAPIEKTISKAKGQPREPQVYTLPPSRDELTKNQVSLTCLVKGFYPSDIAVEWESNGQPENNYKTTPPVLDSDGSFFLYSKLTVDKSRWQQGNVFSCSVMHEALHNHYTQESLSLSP
light chain: B21 light chain
notes: Named on the sheet only by its alteration; also called B3 variant of GpH7-B3/GpL16-k0 with G237M (no P238D)

Target: T8, FcγRIa extracellular domain with C-terminal His tag (human, UniProt P12314 16-292)
T8 construct: also called FcgRIa
Assay: SPR (Biacore)
Excerpt: (§1) IL6R-L was utilized as the common antibody L chain for all of the antibodies, the antibodies were expressed and purified according to the method of Reference Example 1, and binding to each of the FcγRs (FcγRIa, FcγRIIa H type, FcγRIIa R type, FcγRIIb, and FcγRIIIa V type) was comprehensively evaluated by the method of Reference Example 2.
(§2) Furthermore, KD(IIaR)/KD(IIb) and KD(IIaH)/KD(IIb) in the table respectively represent the value obtained by dividing the KD value of each variant for FcγRIIaR by the KD value of each variant for FcγRIIb, and the value obtained by dividing the KD value of each variant for FcγRIIaH by the KD value of each variant for FcγRIIb. KD(IIb) of the parent polypeptide/KD(IIb) of the altered polypeptide refers to the value obtained by dividing the KD value of the parent polypeptide for FcγRIIb by the KD value of each variant for FcγRIIb.

T8 sequence (P12314 16-292): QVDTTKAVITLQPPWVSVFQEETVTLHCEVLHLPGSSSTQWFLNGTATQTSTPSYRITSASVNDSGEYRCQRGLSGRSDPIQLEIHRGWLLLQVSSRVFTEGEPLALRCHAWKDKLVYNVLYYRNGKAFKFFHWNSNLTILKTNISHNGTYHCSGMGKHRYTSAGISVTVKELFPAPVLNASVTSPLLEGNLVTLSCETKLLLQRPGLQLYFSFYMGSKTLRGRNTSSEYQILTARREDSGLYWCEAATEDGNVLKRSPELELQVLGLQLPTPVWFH

Kd | Binder
0.098 µM | B1
0.025 µM | B2

Target: T1, FcγRIIa type R extracellular domain …
Assay: SPR (Biacore)
Excerpt: as §1, §2

Kd | Binder
2.6 µM | B3
0.88 µM | B4
5 µM | B5
2.8 µM | B2
2.3 µM | B6
4.2 µM | B7

Target: T2, FcγRIIa type H extracellular domain …
Assay: SPR (Biacore)
Excerpt: as §1, §2

Kd | Binder
7 µM | B8
30 µM | B6

Target: T3, FcγRIIb extracellular domain with …
Assay: SPR (Biacore)
Excerpt: as §1, §2

Kd | Binder
0.069 µM | B4

Target: T9, FcγRIIIa type V extracellular domain with C-terminal His tag (human, UniProt P08637 17-208)
T9 construct: extracellular domain; also called FcgRIIIaV; FcγRIIIaV
Assay: SPR (Biacore)
Excerpt: as §1, §2
T9 sequence (P08637 17-208 F176V): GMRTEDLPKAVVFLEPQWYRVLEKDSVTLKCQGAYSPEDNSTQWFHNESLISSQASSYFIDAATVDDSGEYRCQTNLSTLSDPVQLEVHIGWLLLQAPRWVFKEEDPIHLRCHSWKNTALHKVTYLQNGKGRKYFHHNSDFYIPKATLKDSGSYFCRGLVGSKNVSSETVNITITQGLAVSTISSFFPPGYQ

Kd | Binder
70 µM | B1
56 µM | B3
36 µM | B4
30 µM | B8
50 µM | B5
45 µM | B9
56 µM | B2
66 µM | B6
68 µM | B7

Target: T10, FcγRIIIa type V extracellular domain with C-terminal His tag (human, UniProt P08637 17-208)
T10 construct: extracellular domain; also called FcγRIIIaV; FcgRIIIaV; not shown: His tag at the C terminus
Assay: SPR (Biacore), antibody captured, FcγR analyte
Excerpt: as §2, with “respectively show” for “respectively represent”, “to a” for “to the”
(§3) Kinetic analyses for calculating the KD values of each altered antibody for FcγR were performed according to the following method. First, antibodies of interest were captured onto the above-mentioned sensor chips, and an Fcγ receptor diluted with the running buffer was allowed to interact. The Biacore Evaluation Software was used to globally fit the measured results to the obtained sensorgram using the 1:1 Langmuir binding model, and the association rate constant ka (L/mol/s) and the dissociation rate constant kd (1/s) were calculated; and from those values the dissociation constants KD (mol/L) were calculated.
T10 sequence (P08637 17-208 F176V): as above

Kd | Binder
45 µM | B10
43 µM | B11
17 µM | B12
42 µM | B13
41 µM | B14
41 µM | B15
38 µM | B16

Target: T4, FcγRIIa type R extracellular domain …
Assay: SPR (Biacore), antibody captured, FcγR analyte
Excerpt: as §2, with “respectively show” for “respectively represent”, “to a” for “to the”
as §3

Kd | Binder
26 µM | B10
14 µM | B11
3.5 µM | B12
7.9 µM | B13
38 µM | B14
7.2 µM | B16

Target: T5, FcγRIIa type R extracellular domain, …
Assay: SPR (Biacore), antibody captured, FcγR as analyte
Excerpt: as §2, §3

Kd | Binder
8.4 µM | B17
9.6 µM | B18
9.2 µM | B19

Target: T6, FcγRIIb extracellular domain, …
Assay: SPR (Biacore), antibody captured, FcγR as analyte
Excerpt: as §2, §3

Kd | Binder
0.9 µM | B17
1 µM | B18
0.8 µM | B20
0.8 µM | B19

Target: T7, FcγRIIb extracellular domain with …
Assay: SPR (Biacore): antibody captured on the chip, FcγRIIb as analyte; amount bound per amount captured, relative to GpH7-B3/GpL16-k0 = 100

binding result | Binder
binds | B21
binds | B22
binds | B23
binds | B24
binds | B25
binds | B26
binds | B27
